One experiment deals with HLA-B*35:01. The experiment can be described thus: IEDB peptide-MHC binding, purified MHC/competitive/fluorescence; filed as Kd, often an IC50 or EC50 that approximates it; ≥ and ≤ were set here for values at or beyond the usual limits of such assays.
In another experiment the target is HLA-B*39:01. The experiment is described as above.
Another experiment concerns the target HLA-B*15:42. The description is as above.
The target of another experiment is HLA-B*45:06. Described as above.
The target in the next experiment is HLA-A*02:01. The description is as above.
The next experiment addresses HLA-B*83:01. The experiment is described as above.
Another experiment has as its target HLA-C*05:01. The experiment can be described thus: IEDB peptide-MHC binding, purified MHC/direct/fluorescence; filed as Kd, often an IC50 or EC50 that approximates it; ≥ and ≤ were set here for values at or beyond the usual limits of such assays.
Another experiment addresses HLA-C*12:03. The experiment is described as above.
The target in the next experiment is HLA-C*03:03. Described as above.
For experiment [1], the target named is HLA-B*15:01. The experiment in a line: IEDB peptide-MHC binding, purified MHC/competitive/fluorescence; filed as Kd, often an IC50 or EC50 that approximates it; ≥ and ≤ were set here for values at or beyond the usual limits of such assays.
In another experiment the target is HLA-A*26:01. Described as above.
The target in a further experiment is HLA-B*18:01. Described as above.
For another experiment, the target named is HLA-B*51:01. The experiment is described as above.
For a further experiment, the target named is HLA-B*27:03. The description is as above.
For the next experiment, the target named is HLA-B*58:01. Described as above.
For another experiment, the target named is HLA-B*46:01. Described as above.
A further experiment has as its target HLA-A*69:01. Described as above.
A further experiment concerns the target HLA-A*29:02. The experiment can be described thus: IEDB peptide-MHC binding, purified MHC/direct/fluorescence; filed as Kd, often an IC50 or EC50 that approximates it; ≥ and ≤ were set here for values at or beyond the usual limits of such assays. As to conditions: source organism: Maciel virus.
The target in a further experiment is HLA-A*02:16. Described as above.
In the next experiment the target is HLA-A*02:03. The experiment is described as above.
For experiment [2], the target named is HLA-A*03:01. Described as above.
A further experiment concerns the target HLA-A*02:12. The experiment is described as above.
The next experiment deals with HLA-A*02:11. Described as above.
A further experiment deals with HLA-A*02:19. The description is as above.
Another experiment addresses HLA-C*06:02. The description is as above.
Experiment [3] concerns the target HLA-A*03:01. The experiment can be described thus: IEDB peptide-MHC binding, purified MHC/competitive/fluorescence; filed as Kd, often an IC50 or EC50 that approximates it; ≥ and ≤ were set here for values at or beyond the usual limits of such assays. As to conditions: source organism: Salmonella enterica subsp. enterica serovar Typhi.
The target of a further experiment is HLA-A*32:07. Described as above. As to conditions: source organism: Zaire ebolavirus.
The target of a further experiment is HLA-A*32:15. Described as above. As to conditions: source organism: Zaire ebolavirus.
The target in the next experiment is HLA-A*68:23. The description is as above. As to conditions: source organism: Zaire ebolavirus.
For the next experiment, the target named is HLA-A*24:02. The experiment can be described thus: IEDB peptide-MHC binding, purified MHC/competitive/fluorescence; ≥ and ≤ were set here for values at or beyond the usual limits of such assays. As to conditions: source organism: Zaire ebolavirus.
Experiment [4] concerns the target HLA-B*15:01. The experiment in a line: IEDB peptide-MHC binding, purified MHC/direct/fluorescence; filed as Kd, often an IC50 or EC50 that approximates it; ≥ and ≤ were set here for values at or beyond the usual limits of such assays. As to conditions: source organism: Zaire ebolavirus.
For experiment [5], the target named is HLA-A*68:02. Described as above. As to conditions: source organism: Zaire ebolavirus.
In the next experiment the target is HLA-B*07:02. Described as above. As to conditions: source organism: Mammarenavirus juninense.
In a further experiment the target is HLA-B*53:01. The experiment can be described thus: IEDB peptide-MHC binding, purified MHC/competitive/radioactivity; filed as Kd, often an IC50 or EC50 that approximates it; ≥ and ≤ were set here for values at or beyond the usual limits of such assays. As to conditions: source organism: Mammarenavirus juninense.
The target in another experiment is HLA-B*54:01. The description is as above. As to conditions: source organism: Mammarenavirus juninense.
Experiment [6] has as its target HLA-A*68:02. The experiment in a line: IEDB peptide-MHC binding, purified MHC/competitive/fluorescence; filed as Kd, often an IC50 or EC50 that approximates it; ≥ and ≤ were set here for values at or beyond the usual limits of such assays. As to conditions: source organism: Entamoeba histolytica HM-1:IMSS.
Another experiment deals with HLA-A*01:01. The description is as above.
Setting [7] is: source organism: Salmonella enterica subsp. enterica serovar Typhi.
[8] abbreviates: source organism: Salmonella enterica subsp. enterica serovar Typhi str. CT18.
Setting [9] is: source organism: Lechiguanas virus.
The mark [10] stands for this setting: source organism: Yersinia pestis Nepal516.
[11] abbreviates: source organism: Zaire ebolavirus.
Where [12] appears, read: source organism: Mammarenavirus juninense.
[13] abbreviates: source organism: Escherichia coli O139:H28 str. E24377A.

In the case of FVVDTTPPL, the dissociation constant Kd with HLA-B*35:01 (setting [7]) is at most 0.1 nM; in the experiment with HLA-B*39:01 (setting [7]), 7 nM; with HLA-B*15:42 (setting [7]), at least 5000 nM; in the experiment with HLA-B*45:06 (setting [7]), at least 5000 nM; with HLA-A*02:01 (setting [7]), 0.2 nM; with HLA-B*83:01 (setting [7]), at least 5000 nM. Further, the equilibrium dissociation constant (Kd) was 1100 nM in the experiment with HLA-C*05:01 (setting [8]), 372 nM with HLA-C*12:03 (setting [8]) and 2 nM in the experiment with HLA-C*03:03 (setting [8]).

As for HTQAIEGAW, the Kd in the experiment with HLA-B*15:01 [1] (setting [9]), with HLA-A*26:01 (setting [9]), in the experiment with HLA-B*39:01 (setting [9]), with HLA-B*18:01 (setting [9]), with HLA-B*51:01 (setting [9]) and in the experiment with HLA-B*27:03 (setting [9]) was at least 20000 nM throughout. In addition, the dissociation constant Kd is 1.3 nM with HLA-B*58:01 (setting [9]); at least 20000 nM with HLA-B*46:01 (setting [9]); at least 20000 nM with HLA-A*02:01 (setting [9]); at least 20000 nM with HLA-A*69:01 (setting [9]); at least 20000 nM with HLA-A*29:02; at least 20000 nM in the experiment with HLA-A*02:16 (source organism: Maciel virus). For the same sequence, the Kd in the experiment with HLA-A*02:03 (source organism: Maciel virus), in the experiment with HLA-A*03:01 [2] (source organism: Maciel virus), with HLA-A*02:12 (source organism: Maciel virus), with HLA-A*02:11 (source organism: Maciel virus) and with HLA-A*02:19 (source organism: Maciel virus) was at least 20000 nM throughout.

Consider FASASSYAI, for which the dissociation constant (Kd) with HLA-B*35:01 (setting [10]) was 0.4 nM; in the experiment with HLA-B*39:01 (setting [10]) it was 7.4 nM; with HLA-B*51:01 (setting [10]) it was 3780 nM; with HLA-C*05:01 (setting [10]), 866 nM; with HLA-C*12:03 (setting [10]), 105 nM; with HLA-C*03:03 (setting [10]) it was at most 1 nM.

YARYVLQKL registered a Kd with HLA-C*06:02 (source organism: human gammaherpesvirus 4) of 874 nM.

On to HVCYFSHPY, for which the Kd is 0.7 nM with HLA-B*35:01 (setting [7]) and at least 20000 nM in the experiment with HLA-A*03:01 [3].

TTIGEWAFW: the Kd is at least 20000 nM with HLA-A*26:01 (setting [11]); at least 20000 nM with HLA-B*39:01 (setting [11]); at least 20000 nM in the experiment with HLA-B*18:01 (setting [11]); at least 5000 nM with HLA-B*15:42 (setting [11]); at least 20000 nM with HLA-B*27:03 (setting [11]); 3.3 nM in the experiment with HLA-A*32:07. In addition, the Kd in the experiment with HLA-A*32:15 was 26.9 nM; in the experiment with HLA-B*58:01 (setting [11]), 0.3 nM; with HLA-B*46:01 (setting [11]), at least 20000 nM; in the experiment with HLA-B*45:06 (setting [11]), at least 5000 nM; in the experiment with HLA-A*68:23 it was 1.6 nM; in the experiment with HLA-A*02:01 (setting [11]) it was at least 20000 nM. Besides, the equilibrium dissociation constant (Kd) with HLA-B*83:01 (setting [11]) was at least 5000 nM; in the experiment with HLA-A*69:01 (setting [11]) it was at least 20000 nM; with HLA-B*15:01 [4], at least 20000 nM; in the experiment with HLA-A*68:02 [5], at least 20000 nM; with HLA-A*02:16 (setting [11]) it was at least 20000 nM; with HLA-A*02:03 (setting [11]) it was at least 20000 nM. Also, the Kd in the experiment with HLA-A*03:01 [2] (setting [11]), with HLA-A*02:12 (setting [11]), with HLA-A*02:11 (setting [11]) and with HLA-A*02:19 (setting [11]) was at least 20000 nM throughout. The IC50 with HLA-A*24:02 came out at 113 nM.

Turning to LPTTITVPV, the Kd is at most 0.1 nM with HLA-B*35:01 (setting [12]); 700 nM with HLA-B*51:01 (setting [12]); 824 nM in the experiment with HLA-B*07:02; 127 nM in the experiment with HLA-B*53:01; 9 nM in the experiment with HLA-B*54:01.

Regarding CAMFWYHYI, the Kd in the experiment with HLA-A*68:02 [6] worked out at 7.2 nM; in the experiment with HLA-C*06:02 (source organism: Entamoeba histolytica HM-1:IMSS) it was 1260 nM.

Take EIVAEYITY: the Kd is 156 nM in the experiment with HLA-B*15:01 [1] (setting [13]), 6.6 nM in the experiment with HLA-B*35:01 (setting [13]), 41.6 nM with HLA-A*26:01 (setting [13]) and at least 20000 nM with HLA-A*01:01 (setting [13]).

Consider ITDWLNFTL, for which the dissociation constant Kd was determined as 123 nM with HLA-B*58:01 (setting [7]), 977 nM in the experiment with HLA-A*01:01 (setting [7]), 2.2 nM with HLA-A*02:01 (setting [7]) and 213 nM in the experiment with HLA-C*05:01 (setting [8]).

For the sequence LAAEEILTL, the Kd with HLA-B*15:01 [1] (setting [13]) was at least 20000 nM; with HLA-B*39:01 (setting [13]) it was at least 20000 nM; in the experiment with HLA-B*58:01 (setting [13]) it was 748 nM; with HLA-A*02:01 (setting [13]), 164 nM; in the experiment with HLA-C*12:03 (setting [13]), 10 nM; with HLA-C*03:03 (setting [13]), at most 1 nM.

Turning to IGILHLILW, in the experiment with HLA-B*58:01 (source organism: Influenza A virus (A/Memphis/1/1978(H1N1))), the Kd stood at 3270 nM.

For orientation: Kd means the free concentration of one partner at which half of the binding sites on the other are occupied at equilibrium, for simple one-to-one binding. By IC50 is commonly meant the point on the concentration scale where inhibition reaches its midpoint.

The record behind these values is the Immune Epitope Database (IEDB).
